Reference: publication PMC3008712

How the values were obtained:
[1] = target: T1, recombinant human γD-crystallin (human), P07320; experiment: reducing SDS-PAGE; 1 mg/ml HGDC in 5 mM sodium phosphate pH 7.0, UV-C irradiated (254 nm, 1,850 μW/cm^2) for 10-60 min; 15% gel, sample buffer with β-mercaptoethanol; band intensities by Image-J; details: remark: other sources report otherwise
T1 chain: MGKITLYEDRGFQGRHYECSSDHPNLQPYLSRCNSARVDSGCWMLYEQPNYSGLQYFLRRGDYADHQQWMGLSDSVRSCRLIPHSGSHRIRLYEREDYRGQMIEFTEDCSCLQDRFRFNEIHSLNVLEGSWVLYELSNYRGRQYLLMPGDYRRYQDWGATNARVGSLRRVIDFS

[2] = target: T1, recombinant human γD-crystallin …; experiment: non-reducing SDS-PAGE; 1 mg/ml HGDC in 5 mM sodium phosphate pH 7.0, UV-C irradiated (254 nm, 1,850 μW/cm^2) for 10-60 min; 15% gel, sample buffer without β-mercaptoethanol; band intensities by Image-J; details: remark: other sources report otherwise

B1: recombinant human γD-crystallin, P07320 1-174 (natural protein)
chain: MGKITLYEDRGFQGRHYECSSDHPNLQPYLSRCNSARVDSGCWMLYEQPNYSGLQYFLRRGDYADHQQWMGLSDSVRSCRLIPHSGSHRIRLYEREDYRGQMIEFTEDCSCLQDRFRFNEIHSLNVLEGSWVLYELSNYRGRQYLLMPGDYRRYQDWGATNARVGSLRRVIDFS
HGDC polymerization (%) with β-ME, 10 min UV-C [1]: 6.66% | HGDC polymerization (%) with β-ME, 20 min UV-C [1]: 15% | HGDC polymerization (%) with β-ME, 30 min UV-C [1]: 25.4% | HGDC polymerization (%) with β-ME, 40 min UV-C [1]: 29.8% | HGDC polymerization (%) with β-ME, 50 min UV-C [1]: 30.1% | HGDC polymerization (%) with β-ME, 60 min UV-C [1]: 31.5% | HGDC polymerization (%) without β-ME, 10 min UV-C [2]: 7.31% | HGDC polymerization (%) without β-ME, 20 min UV-C [2]: 17.6% | HGDC polymerization (%) without β-ME, 30 min UV-C [2]: 30.6% | HGDC polymerization (%) without β-ME, 40 min UV-C [2]: 42% | HGDC polymerization (%) without β-ME, 50 min UV-C [2]: 51.3% | HGDC polymerization (%) without β-ME, 60 min UV-C [2]: 53.6%
